We go through one molecule from article PMC12631009, “Dominant‐Negative Effects of p53 R337 Variants in Li–Fraumeni Syndrome: Impact on Tetramer Formation and Transcriptional Activity” (Chembiochem, 2025).

The experiment concerns the target T1, Biotin-(Aca)2-p53TD (biotin-labeled WT p53 tetramerization domain peptide, residues 319-358) (human, biotin conjugated at the N-terminus with two residues of aminocaproic acid (Aca) as a linker).
T1 construct: p53 tetramerization domain, human, residues 319-358; Held on NeutrAvidin beads in the pull-down; also called Bio-(Aca)2-p53TD; biotin-labeled WT p53TD; source: synthetic peptide (solid-phase synthesis, reverse-phase HPLC purified); not shown: biotin, N-terminal, kept
T1 peptide: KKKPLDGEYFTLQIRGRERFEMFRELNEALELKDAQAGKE
The experiment can be described thus: pull-down; avidin-biotin pull-down: Bio-(Aca)2-p53TD mixed with nonbiotinylated peptide at equimolar concentrations (10 μM) in 50 mM Na phosphate buffer (pH 7.5), 100 mM NaCl; boiled 5 min, cooled to promote hetero-oligomerization; bound to NeutrAvidin beads at 4 °C for 2 h; eluted with 80% acetic acid; peptides quantified by reverse-phase HPLC; result as ratio of peptide pulled down to biotinylated p53TD. To be noted: both partners purified.

B1: WT p53TD peptide (residues 319-358 of human p53), nonbiotinylated (peptide)
peptide: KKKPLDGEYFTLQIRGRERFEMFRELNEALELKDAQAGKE
notes: p53 tetramerization domain, human, residues 319-358; source: synthetic peptide (solid-phase synthesis, reverse-phase HPLC purified)
As for B1, the “ratio of peptide pulled down to biotinylated p53TD” value came out at 0.81.
